Values quoted from earlier work, collected in patent US5679705A, “Triterpene derivatives with immunosuppressant activity” (Merck & Co., Inc., priority 1996, dated 1997).

Target: T1, Kv 1.3 channels (CHO cells transfected with Kv 1.3 channels) (Homo sapiens, UniProt P22001)
T1 construct: expressed in transfected cells; host or cells: CHO cells
Conditions: stated in the method for the peptide used to establish the efflux window; read-out: IC50 (blocker of Kv 1.3 channels)

T1 sequence (P22001 whole entry): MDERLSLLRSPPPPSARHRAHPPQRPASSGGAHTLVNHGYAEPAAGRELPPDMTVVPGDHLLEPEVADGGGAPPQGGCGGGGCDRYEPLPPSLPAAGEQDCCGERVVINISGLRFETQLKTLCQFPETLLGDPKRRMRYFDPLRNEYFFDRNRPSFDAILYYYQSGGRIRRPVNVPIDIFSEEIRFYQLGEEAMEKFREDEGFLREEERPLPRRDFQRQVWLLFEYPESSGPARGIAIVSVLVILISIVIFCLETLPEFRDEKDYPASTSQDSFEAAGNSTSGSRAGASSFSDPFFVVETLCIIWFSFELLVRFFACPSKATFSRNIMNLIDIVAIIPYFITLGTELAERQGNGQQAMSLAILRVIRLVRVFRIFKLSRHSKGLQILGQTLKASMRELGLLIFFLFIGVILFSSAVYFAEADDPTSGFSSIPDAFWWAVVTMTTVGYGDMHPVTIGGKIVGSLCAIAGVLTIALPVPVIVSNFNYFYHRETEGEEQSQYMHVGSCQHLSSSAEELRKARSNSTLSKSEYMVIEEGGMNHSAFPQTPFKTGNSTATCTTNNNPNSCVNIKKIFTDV

For “margatoxin (TIINVKCTSPKQCLPPCKAQFGQSAGAKCMNGKCKCYPH; UniProt P40755 1-39, looked up)”, the IC50 is given as 0.1 nM.
